The star is where a group is joined. Biotin = O=C1N[C@H]2[C@H](CS[C@H]2CCCCC(=O)*)N1
Biological target: T1, human RORγt ligand binding domain (residues 265 to 518) with an N-terminal His6-tag (human, UniProt P51449-1 265-518)
T1 sequence (looked up): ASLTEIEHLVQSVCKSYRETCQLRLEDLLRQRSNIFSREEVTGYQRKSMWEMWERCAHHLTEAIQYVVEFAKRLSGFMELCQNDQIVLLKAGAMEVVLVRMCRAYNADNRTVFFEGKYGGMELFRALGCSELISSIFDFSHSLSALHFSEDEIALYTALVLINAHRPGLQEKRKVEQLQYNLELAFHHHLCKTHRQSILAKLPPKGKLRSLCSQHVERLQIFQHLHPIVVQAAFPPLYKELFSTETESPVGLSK
Assay: AlphaScreen or HTRF

binding result: binds
B1: N-terminal biotinylated SRC-1 box2 peptide (peptide)
peptide: Biotin-PSSHSSLTARHKILHRLLQEGSPSD-NH2
SMILES: CC[C@H](C)[C@H](NC(=O)[C@H](CCCCN)NC(=O)[C@H](Cc1c[nH]cn1)NC(=O)[C@H](CCCNC(=N)N)NC(=O)[C@H](C)NC(=O)[C@@H](NC(=O)[C@H](CC(C)C)NC(=O)[C@H](CO)NC(=O)[C@H](CO)NC(=O)[C@H](Cc1c[nH]cn1)NC(=O)[C@H](CO)NC(=O)[C@H](CO)NC(=O)[C@@H]1CCCN1C(=O)CCCC[C@@H]1SC[C@@H]2NC(=O)N[C@@H]21)[C@@H](C)O)C(=O)N[C@@H](CC(C)C)C(=O)N[C@@H](Cc1c[nH]cn1)C(=O)N[C@@H](CCCNC(=N)N)C(=O)N[C@@H](CC(C)C)C(=O)N[C@@H](CC(C)C)C(=O)N[C@@H](CCC(N)=O)C(=O)N[C@@H](CCC(=O)O)C(=O)NCC(=O)N[C@@H](CO)C(=O)N1CCC[C@H]1C(=O)N[C@@H](CO)C(=O)N[C@@H](CC(=O)O)C(N)=O

Reference: publication PMC8017705 (Proceedings of the National Academy of Sciences of the …, 2021)
